Reference: patent US20040204561A1, “Peptide aggregates” (priority 2002, published 2004)
Primed or numbered codes have the meaning given here. Ends that are not written are not given here. bbDTPA = DTPA chelating ligand bonded through a carbon of its ethylene backbone; bbDTPA″ = DTPA chelating ligand bound through a backbone ethylene carbon

Experiments:
[1] = Aggregation / gel formation behaviour in aqueous solution; format: physicochemical
Experimental: EP1272L (0.0842 g) was suspended in 2 mL water. To this were added 160 μL 1N NaOH, bringing the pH of the solution to 7.5. The volume was taken to 5 mL with addition of water and the solution gently swirled until all solids were dissolved. The chelatables were monitored by titration using xylenol orange as an indicator for free gadolinium. Following titration, 86.4 μL of 241 mM stock solution of GdCl3 was added to the solution with stirring followed by 60 μL 1N NaOH. Low mass impurities were removed from the solution by centrifugation over a 0.02 μm anapore membrane (Vecta-Spin). This was followed by resuspension in 20 mL of water and filtration over a 5 μm (Durapore, low protein binding) syringe filter frit. At concentrations greater than 0.5 mM, EP1272L became a non-flowing viscous gel.
As described in Examples 1-8, a self-assembling peptide having the sequence AEAEAKAKAEAEAKAK (SEQ ID NO: 1) was chemically modified to include a metal binding moiety (an organic chelating ligand) via a glycine linker to the N-terminus of the peptide; see EP1272L in FIG. 3. Modified self-assembling peptides having the same metal binding moiety at the N-terminus and further including acidic moieties at the C-terminus of the peptide were also made (see EP 1593L and EP1594L in FIG. 3).

[2] = Relaxivity measurements in PBS (T1, inversion recovery); format: physicochemical
Text: First, solutions of EP 1272L (FW=2,243 Da) were concentrated and purified by centrifugation in a filter device with a nominal molecular weight limit of 300,000 Da. The formation of high molecular weight aggregates allowed EP1272L to be retained by the filter device. […] Third, SEC-LS column retention and light scattering measurements of EP1272L were consistent with a large species having a mass distribution of 4×10^6 to 13×10^6 Da, and a hydrodynamic radius in the range of 155 nm to 210 nm.
Relaxivity measurements were made in PBS. A relaxivity titration consisting of sequential additions of EP1272L (complexed to Gd(III)) to a tube containing approximately 0.6 mL of PBS was performed. Following each addition of EP1272, the sample was thoroughly mixed by manual agitation and the temperature allowed to equilibrate for 10 minutes at 37±2° C. prior to T1 determination. The longitudinal (T1) relaxation time was determined by use of the inversion recovery pulse sequence and fitting the intensity data to an exponential decay. Measurements at 20 MHz were made using a Bruker Minispec PC 120/125/Vts nuclear magnetic resonance process analyzer. The temperature was regulated with a Haake D8-GH circulating bath at 37±2° C. Measurements at 64.5 MHz were made using a Varian XL300 adjusted to a field strength of 1.5 T with a broad band variable temperature probe tuned to 64.5 MHz. The relaxivity of EP1272 at 0.5 T and 1.5 T were 24.9 mM^−1s^−1 and 21.0 mM^−1s^−1 respectively. The relaxivity of EP1593 at 0.5 T was assessed in a similar manner and was 19.9 mM^−1s^−1. The relaxivity of EP1594 was assessed in a similar manner at 0.5 T and was 22.0 mM^−1s^−1.

[3] = biological target: streptavidin magnetic beads (Streptomyces avidinii, UniProt P22629); assay: Avidin affinity assay: capture by streptavidin magnetic beads, quantified by gadolinium ICP; format: binding; details: capture by streptavidin-coated beads, FIG. 8
streptavidin magnetic beads, sequence (P22629 25-183): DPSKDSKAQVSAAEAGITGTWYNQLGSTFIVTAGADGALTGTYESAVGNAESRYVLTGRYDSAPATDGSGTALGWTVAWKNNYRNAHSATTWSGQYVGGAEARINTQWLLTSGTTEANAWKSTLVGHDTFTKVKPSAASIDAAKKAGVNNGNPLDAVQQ
Experimental: Two self-assembling peptides comprising target binding moieties were prepared (FIG. 7). EP1595 contained a C-terminal biotin target binding moiety; EP 1596 contained a C-terminal aromatic target binding moiety (phenylundecane).
EP1272L aggregates were targeted to avidin by incorporation of a biotinylated peptide (e.g., an assembling peptide containing a target binding moiety (EP1595)) into the aggregates. To 70 μL of a 1.54 mM stock solution of EP1272L was added varying amounts of EP1595. The pH was then reduced to 1.5 by addition of 1N HCl to induce mixing of the peptides. The solution was neutralized by addition of 1N NaOH and the volume brought to 500 μL with addition of water. Aggregates containing 20% biotinylated peptide (5:1 ratio of EP1272 to EP1595), 4% biotinylated-peptide (25:1 ratio), and 0.5% biotinylated peptide (200:1) were prepared.
EP1272L aggregates containing the phenylundecane substituted peptide, EP1596, in a 10:1 ratio were prepared as described above.
The three EP1595/EP1272 formulations, one EP1596/EP1272 formulation, and an EP1272 formulation were assayed for affinity to streptavidin magnetic beads. Each sample was diluted so as to maintain a constant ratio of biotinylated peptide and streptavidin binding sites in the assay. Solutions without biotin were treated as though they contained 0.5% EP1595. […] The extent of capture was quantified by gadolinium ICP.

Substance | aggregation behaviour (macroscopic membrane formation) [1] | relaxivity ([2]; 0.5 T (20 MHz), 37±2° C.) [mM⁻¹ s⁻¹] | also measured
AEAEAKAKAEAEAKAK (Targeted aggregate peptide) [reference compound] | tended to form macroscopic membranes |  | 
EP1272: EP1272L complexed to Gd(III) (GAEAEAKAKAEAEAKAK) |  | 24.9 | relaxivity ([2]; 1.5 T (64.5 MHz), 37±2° C.): 21.0 mM⁻¹ s⁻¹
EP1272L: self-assembling peptide AEAEAKAKAEAEAKAK (SEQ ID NO: 1) with bbDTPA chelating ligand via a glycine linker at the N-terminus (bbDTPA-GAEAEAKAKAEAEAKAK) | tended to aggregate, but did not form macroscopic membranes |  | concentration above which a non-flowing viscous gel forms ([1]; aqueous solution after complexing with Gd(III)): greater than 0.5 mM; affinity for streptavidin beads [3]: substantially less affinity for streptavidin beads; relaxivity ([2]; 0.47 T): 25 mM⁻¹ s⁻¹; relaxivity ([2]; 1.5 T (64.5 MHz), 37±2° C.): 21 mM⁻¹ s⁻¹
EP1593: EP1593L complexed to Gd(III) (GAEAEAKAKAEAEAKAK) |  | 19.9 | 
EP1593L: self-assembling peptide having a covalently attached metal binding moiety (bbDTPA) and an acidic group at the C-terminus ({bbDTPA″}-GAEAEAKAKAEAEAKAK; also: acidic group at C-terminus, not given here) | tended to aggregate, but did not form macroscopic membranes |  | 
EP1594: EP1594L complexed to Gd(III) (GAEAEAKAKAEAEAKAK) |  | 22.0 | 
EP1594L: self-assembling peptide having a covalently attached metal binding moiety (bbDTPA) and an acidic group at the C-terminus ({bbDTPA″}-GAEAEAKAKAEAEAKAK; also: acidic group at C-terminus, not given here) | tended to aggregate, but did not form macroscopic membranes |  | 
